Results reported in the supplement of paper PMC9732359.
± gives the uncertainty stated by the source.

Test: protein stability index of a GFP-peptide fusion (yeast GPS) (PSI 1-4); higher = more stable; sorted into four equal gates, so the index is relative within each strain
Outline: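 For each peptide, the protein stability index sums the read frequency in every gate after multiplying it by the gate number. Read frequencies came from plasmids that were PCR-amplified from each gate and Illumina-sequenced, with reads assigned to strains by barcodes. The gates were four equal bins of GFP/Cherry fluorescence ratio applied to mid-log yeast in leucine-free medium carrying a pooled library of tiled 17-residue yeast protein peptides fused downstream of GFP on a Cherry-expressing plasmid.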

DVAIENNTLSRYADAGN [RRP43]
protein stability index (doa10∆): 3.36 ± 0.045
protein stability index (pdr5∆): 3.32 ± 0.048
protein stability index (san1∆): 3.35 ± 0.035
protein stability index (ubr1∆): 3.44 ± 0.041

LQNKSFKSVLPIVLLNT [UBP6]
protein stability index (doa10∆): 1.91 ± 0.067
protein stability index (pdr5∆): 1.45 ± 0.1
protein stability index (san1∆): 1.87 ± 0.12
protein stability index (ubr1∆): 2.1 ± 0.072

VRMLASPMLYKVPDISS [BRR2]
protein stability index (doa10∆): 2.28 ± 0.073
protein stability index (pdr5∆): 2.77 ± 0.078
protein stability index (san1∆): 1.96 ± 0.1
protein stability index (ubr1∆): 2.28 ± 0.051

ALLGDKIYNFGELLHHP [RPN9]
protein stability index (san1∆): 2.36 ± 0.29

QKNYADPEKDSINATAL [SIN4]
protein stability index (doa10∆): 1.9 ± 0.042
protein stability index (pdr5∆): 1.71 ± 0.047
protein stability index (san1∆): 1.61 ± 0.087
protein stability index (ubr1∆): 1.59 ± 0.032

MLLITSGDSGVYTLACR [RPC11]
protein stability index (doa10∆): 1.58 ± 0.1
protein stability index (pdr5∆): 2.45 ± 0.13
protein stability index (san1∆): 3 ± 0.093
protein stability index (ubr1∆): 2.46 ± 0.088

SEKGFSKEQIHGSIIIL [YCS4]
protein stability index (doa10∆): 2.71 ± 0.12
protein stability index (pdr5∆): 2.37 ± 0.077
protein stability index (san1∆): 2.76 ± 0.076
protein stability index (ubr1∆): 2.73 ± 0.087

TKLKNAVQNESVSSPIE [QCR2]
protein stability index (doa10∆): 3.05 ± 0.11
protein stability index (pdr5∆): 3.1 ± 0.084
protein stability index (san1∆): 3.25 ± 0.094
protein stability index (ubr1∆): 3.05 ± 0.067

CINKWIKTRDACPLDNQ [HRT1]
protein stability index (doa10∆): 3.16 ± 0.093
protein stability index (pdr5∆): 3.03 ± 0.079
protein stability index (san1∆): 2.72 ± 0.078
protein stability index (ubr1∆): 3.17 ± 0.05

TQVYKLGLAKSVHHARV [RPS9A]
protein stability index (doa10∆): 1.94 ± 0.089
protein stability index (pdr5∆): 1.48 ± 0.053
protein stability index (san1∆): 1.55 ± 0.14
protein stability index (ubr1∆): 1.24 ± 0.066

LGRLNKLRKIAISKKNK [LIN1]
protein stability index (doa10∆): 2 ± 0.083
protein stability index (pdr5∆): 1.74 ± 0.096
protein stability index (san1∆): 1.39 ± 0.23
protein stability index (ubr1∆): 1.47 ± 0.072

WRILKEDYAIVTKGGTV [PRP28]
protein stability index (doa10∆): 3.47 ± 0.27
protein stability index (pdr5∆): 3.2 ± 0.29
protein stability index (san1∆): 3.26 ± 0.11
protein stability index (ubr1∆): 3.41 ± 0.17

RKTLKEKAIPKDQRATT [RPO26]
protein stability index (doa10∆): 3.06 ± 0.057
protein stability index (pdr5∆): 3.18 ± 0.064
protein stability index (san1∆): 3.04 ± 0.049
protein stability index (ubr1∆): 3.31 ± 0.07

PFFKYIDDANVTRKQED [RPC37]
protein stability index (doa10∆): 2.55 ± 0.091
protein stability index (pdr5∆): 2.12 ± 0.064
protein stability index (san1∆): 2.34 ± 0.083
protein stability index (ubr1∆): 2.52 ± 0.061

PEENATEGPSDKKLNLN [SNF12]
protein stability index (pdr5∆): 3.59 ± 0.17
protein stability index (san1∆): 3.27 ± 0.099
protein stability index (ubr1∆): 3.29 ± 0.1

VEAGMIALRNGQSSVKH [RPT5]
protein stability index (doa10∆): 2.87 ± 0.14
protein stability index (pdr5∆): 2.9 ± 0.16
protein stability index (san1∆): 2.79 ± 0.11
protein stability index (ubr1∆): 2.6 ± 0.11

CEQQPSQEREFSLLVKA [SIN4]
protein stability index (doa10∆): 3.01 ± 0.077
protein stability index (pdr5∆): 3.07 ± 0.08
protein stability index (san1∆): 2.94 ± 0.054
protein stability index (ubr1∆): 3.04 ± 0.045

GKKRFRVVTVDGKLIDI [SMC4]
protein stability index (pdr5∆): 3.49 ± 0.14
protein stability index (san1∆): 3.31 ± 0.076
protein stability index (ubr1∆): 3.55 ± 0.18

NTTTRVIPQVEVGNRKH [SNF5]
protein stability index (doa10∆): 2.21 ± 0.2
protein stability index (pdr5∆): 2.46 ± 0.095
protein stability index (san1∆): 2.35 ± 0.17
protein stability index (ubr1∆): 2.62 ± 0.094

AFDVDRAKSCGVDAMSV [RPL1A]
protein stability index (doa10∆): 2.79 ± 0.092
protein stability index (pdr5∆): 2.73 ± 0.094
protein stability index (san1∆): 2.76 ± 0.091
protein stability index (ubr1∆): 2.71 ± 0.055

SYRNAFTNVLTKYSDVL [YJL039C/NUP192]
protein stability index (doa10∆): 2.12 ± 0.052
protein stability index (pdr5∆): 1.72 ± 0.059
protein stability index (san1∆): 2.36 ± 0.066
protein stability index (ubr1∆): 2.13 ± 0.048

SQSSNANICLTFLESIN [SIN4]
protein stability index (doa10∆): 2.42 ± 0.048
protein stability index (pdr5∆): 2.61 ± 0.054
protein stability index (san1∆): 2.55 ± 0.05
protein stability index (ubr1∆): 2.74 ± 0.048

NCNIKDFKPPYIYSHVN [SWP82]
protein stability index (doa10∆): 2.73 ± 0.086
protein stability index (pdr5∆): 2.77 ± 0.086
protein stability index (san1∆): 2.45 ± 0.11
protein stability index (ubr1∆): 2.91 ± 0.057

LQQQQQVVTTVASQSPH [SNF6]
protein stability index (doa10∆): 1.81 ± 0.08
protein stability index (pdr5∆): 1.92 ± 0.074
protein stability index (san1∆): 2.03 ± 0.11
protein stability index (ubr1∆): 2.25 ± 0.049

TCQILESGEDEAEFSLR [RRP46]
protein stability index (pdr5∆): 2.62 ± 0.28
protein stability index (ubr1∆): 3.46 ± 0.19

LEQDLHFENAKVIDLDT [YIL149C/MLP2]
protein stability index (doa10∆): 3.08 ± 0.18
protein stability index (pdr5∆): 3.32 ± 0.16
protein stability index (san1∆): 2.65 ± 0.23
protein stability index (ubr1∆): 3.13 ± 0.11

GYGSNKKTKFLSPSGHK [RPL32]
protein stability index (doa10∆): 2.4 ± 0.081
protein stability index (pdr5∆): 2.64 ± 0.09
protein stability index (san1∆): 2.62 ± 0.14
protein stability index (ubr1∆): 1.63 ± 0.092

MDIILGIRVQDSVILAS [PRE1]
protein stability index (doa10∆): 1.47 ± 0.23
protein stability index (pdr5∆): 1.62 ± 0.2
protein stability index (san1∆): 1.71 ± 0.24
protein stability index (ubr1∆): 1.4 ± 0.11

LGEFSITYTPVRHGRAG [RPS15]
protein stability index (doa10∆): 1.85 ± 0.15
protein stability index (pdr5∆): 1.85 ± 0.12
protein stability index (san1∆): 1.61 ± 0.15

SQQNIVPNSSDQAELPN [SNF2]
protein stability index (doa10∆): 2.73 ± 0.06
protein stability index (pdr5∆): 2.67 ± 0.079
protein stability index (san1∆): 3.04 ± 0.057
protein stability index (ubr1∆): 3.01 ± 0.069

PRALQPSQFGMLCTADT [RET1]
protein stability index (doa10∆): 1.87 ± 0.1
protein stability index (pdr5∆): 1.57 ± 0.05
protein stability index (san1∆): 2.02 ± 0.13
protein stability index (ubr1∆): 2.18 ± 0.051

KRYRLKESQLPRIQRAD [RPB5]
protein stability index (doa10∆): 2.86 ± 0.17
protein stability index (pdr5∆): 3.16 ± 0.15
protein stability index (san1∆): 3.02 ± 0.1
protein stability index (ubr1∆): 3.07 ± 0.082

EVYRTSLNTKKNEKLIL [SMC3]
protein stability index (doa10∆): 1.75 ± 0.082
protein stability index (pdr5∆): 1.96 ± 0.074
protein stability index (san1∆): 2.73 ± 0.13
protein stability index (ubr1∆): 2.35 ± 0.1

SGQKTNRQVMHKMGVER [SIR3]
protein stability index (doa10∆): 3.08 ± 0.21
protein stability index (pdr5∆): 3.75 ± 0.18
protein stability index (san1∆): 3.4 ± 0.25
protein stability index (ubr1∆): 3.27 ± 0.22

FELIELVTPKSFLFDVL [NUT1]
protein stability index (doa10∆): 1.92 ± 0.25
protein stability index (san1∆): 1.08 ± 0.16
protein stability index (ubr1∆): 1.06 ± 0.12

KQANNFLWPFKLSNPSG [RPL7A]
protein stability index (doa10∆): 2.69 ± 0.13
protein stability index (pdr5∆): 3.02 ± 0.12
protein stability index (san1∆): 3.09 ± 0.1
protein stability index (ubr1∆): 2.74 ± 0.11

LEKCEAEFKKRKIEAET [YCS4]
protein stability index (doa10∆): 2.79 ± 0.14
protein stability index (pdr5∆): 3.17 ± 0.084
protein stability index (san1∆): 3.3 ± 0.21
protein stability index (ubr1∆): 2.98 ± 0.14

VNVLLQSYFSQLKFEGF [BRR2]
protein stability index (doa10∆): 1.22 ± 0.048
protein stability index (pdr5∆): 1.51 ± 0.046
protein stability index (san1∆): 1.28 ± 0.074
protein stability index (ubr1∆): 1.48 ± 0.033

GENVFLKRISDGLSFGK [SIR3]
protein stability index (doa10∆): 3.26 ± 0.18
protein stability index (pdr5∆): 3.39 ± 0.17
protein stability index (san1∆): 3.42 ± 0.075
protein stability index (ubr1∆): 3.54 ± 0.09

EVLLAGFGRKGKAKGDI [RPS23A]
protein stability index (doa10∆): 3.41 ± 0.099
protein stability index (pdr5∆): 3.24 ± 0.093
protein stability index (san1∆): 3.41 ± 0.045
protein stability index (ubr1∆): 3.22 ± 0.071

LIENGASVRIKDKFNQI [NAS6]
protein stability index (pdr5∆): 3.12 ± 0.18
protein stability index (ubr1∆): 3.27 ± 0.065

TVQLTFLIDVLKIYAQI [YCG1]
protein stability index (doa10∆): 1.58 ± 0.047
protein stability index (pdr5∆): 1.99 ± 0.05
protein stability index (san1∆): 1.74 ± 0.059
protein stability index (ubr1∆): 1.7 ± 0.042

EPSDLRSWTLTSEMKVL [YGL100W/SEH1]
protein stability index (doa10∆): 2.92 ± 0.049
protein stability index (pdr5∆): 2.77 ± 0.045
protein stability index (san1∆): 3.16 ± 0.052
protein stability index (ubr1∆): 3.37 ± 0.045

IPDHLAELIPELYSFQQ [SNF12]
protein stability index (doa10∆): 3.02 ± 0.077
protein stability index (pdr5∆): 2.94 ± 0.07
protein stability index (san1∆): 2.95 ± 0.05
protein stability index (ubr1∆): 2.93 ± 0.059

AFFREKGLVSQQLDSFN [RPB2]
protein stability index (doa10∆): 3.11 ± 0.13
protein stability index (pdr5∆): 3.17 ± 0.19
protein stability index (san1∆): 2.96 ± 0.1
protein stability index (ubr1∆): 2.97 ± 0.087

SRDLDISSSTQCLRFLK [POP6]
protein stability index (doa10∆): 2.46 ± 0.1
protein stability index (pdr5∆): 2.24 ± 0.05
protein stability index (san1∆): 2.7 ± 0.14
protein stability index (ubr1∆): 3.05 ± 0.061

NIEERKEKIQHELGINI [BRR2]
protein stability index (doa10∆): 3.02 ± 0.094
protein stability index (pdr5∆): 3.34 ± 0.075
protein stability index (san1∆): 3.52 ± 0.075
protein stability index (ubr1∆): 3.22 ± 0.1

IDSINGPDTKGQLEDFD [SMC3]
protein stability index (doa10∆): 3.47 ± 0.14
protein stability index (pdr5∆): 3.29 ± 0.11
protein stability index (san1∆): 3.18 ± 0.24
protein stability index (ubr1∆): 3.31 ± 0.1

VRNTAPNIRELGVKNLG [YCG1]
protein stability index (doa10∆): 2.88 ± 0.2
protein stability index (pdr5∆): 3.29 ± 0.22
protein stability index (ubr1∆): 2.98 ± 0.13

NEVKEWAVTLDTSRPDL [DSN1]
protein stability index (doa10∆): 2.96 ± 0.11
protein stability index (pdr5∆): 3.15 ± 0.091
protein stability index (san1∆): 3.02 ± 0.052
protein stability index (ubr1∆): 3.15 ± 0.041

SLKDLSSLRNQELLNAE [RPN3]
protein stability index (pdr5∆): 2.15 ± 0.22
protein stability index (san1∆): 3.34 ± 0.14

LQPFWFRVNNASINTSA [ECM29]
protein stability index (doa10∆): 1.66 ± 0.1
protein stability index (pdr5∆): 1.49 ± 0.068
protein stability index (san1∆): 1.26 ± 0.16
protein stability index (ubr1∆): 1.49 ± 0.071

LKKLQSDIESANNQEYD [SMC1]
protein stability index (doa10∆): 3.19 ± 0.076
protein stability index (pdr5∆): 3.2 ± 0.097
protein stability index (san1∆): 3.16 ± 0.062
protein stability index (ubr1∆): 3.13 ± 0.076
